B1: r16_88_TrROS_Hall (parent)
chain: EVIELKIKFKTPEQREKLKEIAKKLNAEVVEEKDGEVIIRFKTPEQAERALKEAEKLGAEVEL

Variants of: B1
Assay: folding stability dG (cDNA display proteolysis); higher = more stable
Conditions: PBS, room temperature

Variant	folding stability dG [kcal/mol]
K8N	4.08
K8Q	4.14
K8L	4.31
K8V	4.34
K8F	4.53
K8G	4.05
K8M	4.48
K8I	4.12
E28P	4.34
E28G	4.33
E28F	4.17
E28Q	4.51
E28R	4.37
E28L	4.24
Q14E	3.98
Q14S	4.19
Q14P	3.48
Q14T	4.3
Q14V	4.38
Q14W	4.3
A22E	4.17
A22P	3.7
A22H	4.21
K23M	4.54

Variant	folding stability dG [kcal/mol]
K23A	4.21
K23S	4.55
K23L	4.53
K23G	4.43
K23W	4.8
K23C	4.61
K23E	4.36
G58L	4.35
R40S	4.38
R40I	4.47
R40G	4.15
R40P	2.96
E32C	4.53
E32W	4.34
E32R	4.3
D34S	4.25
D34A	4.32
D34V	4.4
I7A	4.69
I7L	4.64
I7Y	4.82
I7C	4.31
I7G	4.36
I7D	1.65

Variant	folding stability dG [kcal/mol]
N26C	4.33
N26M	4.53
N26K	4.44
N26S	4.45
N26R	4.42
N26Q	4.45
V30H	4.35
V30R	4.42
V30E	4.59
V30T	4.39
V30A	4.58
V30Q	4.3
V30Y	4.42
V30N	4.52
V30K	4.48
V30F	4.61
E60F	4.07
E60H	4.19
F9C	4.19
F9W	4.61
F9E	2.48
F9I	3.96
E53P	3.08
E53K	4.02

Variant	folding stability dG [kcal/mol]
E53V	4.36
E53H	4.17
E4H	4.42
E4W	4.66
E4C	4.76
E4I	4.54
E4Y	4.64
E20Q	4.22
E20W	4.75
E20F	4.98
E20D	4.26
F41L	4.01
F41K	0.67
R15I	4.37
R15T	4.16
R15W	4.66
R15V	4.29
R15Q	4.22
R15S	4.17
R15C	4.31
R15F	4.35
E31T	4.35
E31V	4.37
E31L	4.62

Variant	folding stability dG [kcal/mol]
E31R	4.35
E31C	4.51
V2K	4.33
V2G	4.48
V2L	4.27
V2C	4.51
V2D	4.1
E48C	4.52
E48L	4.29
E48P	3.89
E48Y	4.67
E48G	4.28
E48W	4.47
E48R	4.25
I21R	3.62
I21K	3.78
I21A	4.15
I21H	4.29
A50F	4.38
A50S	3.9
A50Q	3.84
A50Y	4.43
A50P	2.96
A50D	2.77

Variant	folding stability dG [kcal/mol]
A50T	4.26
A50I	4.4
E16P	4.03
E16R	4.54
E16V	4.47
E16F	4.73
E16I	4.38
L18W	4.54
L18S	4.19
L18Y	4.53
L18V	4.26
K19T	4.49
K19W	4.7
K19E	4.12
K19R	4.3
K42I	4.37
K42L	4.13
K42N	4.18
K42F	4.33
K42A	4.1
K42Q	3.95
A47R	4.53
A47V	4.63
A47M	4.39

Variant	folding stability dG [kcal/mol]
A47W	4.78
A47H	4.42
A47C	4.46
A47G	4.28
E45C	4.77
E45I	4.5
E45G	4.38
L25N	4.13
L25P	3.67
L25S	4.33
A27D	3.12
A27K	3.95
A27E	3.84
A27I	4.34
A27C	4.25
K56E	4.28
K56W	4.26
K56C	4.41
K56M	4.57
V61G	4.4
V61A	4.51
V61R	3.46
V61L	4.28
V61N	4.28

Variant	folding stability dG [kcal/mol]
V61H	4.39
V61D	4.72
V61Y	3.79
V29S	4.32
V29D	4.14
V29M	4.4
V29N	4.62
V29G	4.47
V29C	4.49
V29Q	4.76
L63N	4.3
L63H	4.59
L63T	4.24
L63M	4.23
L63R	4.28
L63G	4.38
I39T	3.95
I39K	1.68
Q46P	4.44
Q46D	4.37
Q46R	4
Q46K	4.21
Q46Y	4.17
P12S	4.44

Variant	folding stability dG [kcal/mol]
P12G	4.38
P12H	4.59
P12D	4.2
P12N	4.23
P12V	4.49
K10M	4.19
K10D	4.11
K10A	4.22
K10F	4.18
K10S	4.16
K10V	4.2
K33S	4.17
K33G	4.36
K33Y	4.31
K33V	4.35
K33H	4.45
K33N	4.32
K24Q	4.56
K24A	4.28
K24M	4.4
K24I	4.49
K6T	4.34
K6P	3.96
K6D	3.67

Variant	folding stability dG [kcal/mol]
K6L	4.32
K6Y	4.77
K6C	4.34
L51A	4.43
L51S	4.59
L51M	4.4
L51V	4.39
L51Q	4.53
L51I	4.41
E36R	4.62
E36N	4.24
E36T	4.59
E36D	4.49
E36Q	4.67
E36F	4.66
E36S	4.26
E36A	4.59
A54D	2.86
A54L	4.35
A54H	3.5
A54R	3.4
A54E	3.03
A54S	4.45
A54T	4.19

Variant	folding stability dG [kcal/mol]
E13A	4.33
E13V	4.37
E13I	4.32
E13H	4.41
E13F	4.99
E13P	4.54
E13N	4.57
P44L	4.65
P44I	4.34
P44V	4.35
P44H	4.75
P44K	4.61
P44C	4.66
R49K	4.15
R49A	4.37
R49Y	4.93
R49N	4.35
E62V	4.35
E62Q	4.3
E62M	4.24
E62L	4.21
E62D	4.59
E62G	4.46
L57D	4.08

Variant	folding stability dG [kcal/mol]
L57P	3.32
L57S	4.26
L57E	4.36
L57Q	4.25
L57M	4.31
L57T	4.04
L57I	4.43
T11C	4.58
T11Y	4.02
T11R	4.37
T11D	4.03
T11Q	4.33
T11E	4.14
T11F	4.54
T11M	4.62
K52H	4.31
K52W	4.43
K52F	4.62
K52M	4.28
K52D	4.25
K52V	4.2
I3Y	4.7
I3R	4.61
I3C	4.46

Variant	folding stability dG [kcal/mol]
I3S	4.71
I3G	4.47
I3H	4.7
I3F	4.97
E1P	4.22
E1S	4.32
E1R	3.94
E1I	4.29
E1H	4.08
V37I	4.39
V37C	4.19
V37L	4.39
V37Y	4.14
I38T	4.44
I38A	4.26
I38Y	4.76
I38E	3.67
I38G	3.78
I38M	4.51
I38P	1.19
I38N	4.24
G35T	4.36
G35W	4.46
G35M	4.26

Variant	folding stability dG [kcal/mol]
G35A	4.5
G35N	4.33
E55C	4.43
E55G	4.22
E55W	4.58
E55T	4.31
T43W	4.29
T43S	4.53
T43D	3.85
T43Q	4.3
T43A	4.45
T43L	4.67
T43C	4.63
A59Q	4.05
A59R	3.99
A59F	4.59
A59H	4.43
A59M	4.39
A59E	4.23
A59T	4.27
K17C	4.36
K17H	4.4

From the MegaScale stability set (Tsuboyama et al. 2023)
